Format in all cases: biochemical
One experiment concerns the target T1, PDGFRβ (Homo sapiens, UniProt P09619).
T1 construct: purchased Millipore (radiometric assay service)
The experiment in a line: Millipore radiometric kinase activity assay, PDGFRβ (h). As to the method: (§1) A commercial radiometric assay service (Millipore, Billerica, Mass.) was used to test the specificity and potency of peptides containing a coupled transduction domain and therapeutic domain, hereinafter “complete peptides”). In these assays, if the kinase is not inhibited by an inhibitor peptide, a positively charged substrate is phosphorylated with a radiolabeled phosphate group from an ATP.
(§2) In a final reaction volume of 25 μL, PDGFRβ (h) (5-10 mU) is incubated with 8 mM MOPS pH 7.0, 0.2 mM EDTA, 0.1 mg/mL poly(Glu, Tyr) 4:1, 10 mM MnCl2, 10 mM MgAcetate and [γ-^33P-ATP] (specific activity approx. 500 cpm/pmol, concentration as required). The reaction is initiated by the addition of the MgATP mix. After incubation for 40 minutes at room temperature, the reaction is stopped by the addition of 5 μL of a 3% phosphoric acid solution. 10 μL of the reaction is then spotted onto a Filtermat A and washed three times for 5 minutes in 75 mM phosphoric acid and once in methanol prior to drying and scintillation counting.
(§3) IC50 values for inhibitor peptides were determined using Millipore's IC50Profiler Express service. The IC50 value was estimated from a 10-point curve of one-half log dilutions. For peptides tested for specificity, the concentration of the peptides that inhibited approximately 95% of MK2 activity was chosen to profile against a battery of kinases related to MK2, cell viability, or human disease from MilliporeKinaseProfiler service. In both assays, compounds were supplied in dimethylsulfoxide (DMSO). Every kinase activity measurement was conducted in duplicate.
(§4) Therapeutic inhibitor peptides were assayed for activity against human kinases related to MK2, cell viability, or human disease. The assays were performed using concentrations of therapeutic inhibitor peptides that yielded 2% to 8% of normal MK2 activity. Error is reported as the standard deviation between 2 samples, and “c” is rat AMPK whereas all other kinases used are human kinases.

The target of the next experiment is T2, Met (Homo sapiens, UniProt P08581).
T2 construct: purchased Millipore (radiometric assay service)
T2 sequence (P08581 25-1390): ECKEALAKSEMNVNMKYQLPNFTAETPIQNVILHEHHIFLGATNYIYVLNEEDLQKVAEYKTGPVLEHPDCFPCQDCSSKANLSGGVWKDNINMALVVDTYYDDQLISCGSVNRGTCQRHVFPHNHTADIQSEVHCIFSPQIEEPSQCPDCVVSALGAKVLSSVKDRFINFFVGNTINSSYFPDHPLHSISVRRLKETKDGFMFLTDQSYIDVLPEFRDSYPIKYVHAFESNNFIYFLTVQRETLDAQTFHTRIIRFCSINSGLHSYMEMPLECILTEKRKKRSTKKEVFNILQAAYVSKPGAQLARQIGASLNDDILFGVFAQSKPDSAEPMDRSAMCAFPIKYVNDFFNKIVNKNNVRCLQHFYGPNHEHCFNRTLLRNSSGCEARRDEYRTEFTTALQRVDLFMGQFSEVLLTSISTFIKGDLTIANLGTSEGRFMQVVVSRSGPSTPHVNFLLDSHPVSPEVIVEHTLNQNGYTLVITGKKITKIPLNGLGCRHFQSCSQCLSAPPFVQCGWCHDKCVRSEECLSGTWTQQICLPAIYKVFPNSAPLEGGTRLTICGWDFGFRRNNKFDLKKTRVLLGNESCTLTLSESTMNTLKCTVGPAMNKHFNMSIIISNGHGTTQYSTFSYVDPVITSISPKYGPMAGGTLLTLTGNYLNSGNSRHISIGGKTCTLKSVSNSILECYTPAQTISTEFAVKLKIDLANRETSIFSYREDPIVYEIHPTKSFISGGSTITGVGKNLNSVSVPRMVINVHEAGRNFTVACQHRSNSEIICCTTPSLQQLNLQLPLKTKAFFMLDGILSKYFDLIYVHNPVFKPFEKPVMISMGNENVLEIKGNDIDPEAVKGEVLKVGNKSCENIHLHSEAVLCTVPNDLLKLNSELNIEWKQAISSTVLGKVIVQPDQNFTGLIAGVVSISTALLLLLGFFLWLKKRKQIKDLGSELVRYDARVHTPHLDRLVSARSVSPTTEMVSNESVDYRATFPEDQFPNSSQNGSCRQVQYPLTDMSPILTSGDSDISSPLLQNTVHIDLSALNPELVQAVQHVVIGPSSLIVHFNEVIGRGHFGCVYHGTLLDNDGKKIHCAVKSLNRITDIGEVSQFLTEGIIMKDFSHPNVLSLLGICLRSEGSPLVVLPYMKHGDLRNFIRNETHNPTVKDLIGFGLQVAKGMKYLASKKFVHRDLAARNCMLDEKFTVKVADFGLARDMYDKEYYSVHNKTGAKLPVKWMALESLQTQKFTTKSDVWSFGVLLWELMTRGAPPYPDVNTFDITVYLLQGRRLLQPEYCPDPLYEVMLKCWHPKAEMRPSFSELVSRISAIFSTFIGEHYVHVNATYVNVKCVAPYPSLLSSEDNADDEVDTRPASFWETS
The experiment in a line: Millipore radiometric kinase activity assay, Met (h). As to the method: as §1
as §2, with “Met” for “PDGFRβ”, “250 μM […] [SEQ ID NO: 56],” for “0.1 mg/mL poly(Glu, Tyr) 4:1, 10 mM MnCl2,”, “P30 filtermat” for “Filtermat A”
as §3, §4

For another experiment, the target named is T3, CK1δ (Homo sapiens, UniProt P48730).
T3 construct: purchased Millipore (assay service)
T3 sequence (P48730 whole entry): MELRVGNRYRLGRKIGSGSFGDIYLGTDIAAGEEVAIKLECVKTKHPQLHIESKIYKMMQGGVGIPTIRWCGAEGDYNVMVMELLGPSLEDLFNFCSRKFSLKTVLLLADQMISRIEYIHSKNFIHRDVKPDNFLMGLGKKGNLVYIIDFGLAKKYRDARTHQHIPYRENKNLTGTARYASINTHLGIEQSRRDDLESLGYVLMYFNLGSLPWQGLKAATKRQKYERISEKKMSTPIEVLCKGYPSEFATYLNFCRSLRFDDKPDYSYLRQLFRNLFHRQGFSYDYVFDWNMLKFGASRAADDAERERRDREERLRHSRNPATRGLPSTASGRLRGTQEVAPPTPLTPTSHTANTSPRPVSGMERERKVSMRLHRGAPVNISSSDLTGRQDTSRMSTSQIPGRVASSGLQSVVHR
The experiment in a line: Millipore radiometric kinase activity assay, CK1δ (h). As to the method: as §1
as §2, with “CK1δ” for “PDGFRβ”, “200 μM KRRRALS(p)VASLPGL [SEQ ID NO: 54],” for “0.1 mg/mL poly(Glu, Tyr) 4:1, 10 mM MnCl2,”, “P30 filtermat” for “Filtermat A”
as §3, §4

The next experiment has as its target T4, MAPK1 (Homo sapiens, UniProt P27361).
T4 construct: purchased Millipore (radiometric assay service)
The experiment in a line: Millipore radiometric kinase activity assay, MAPK1 (h). As to the method:
as §1
as §2, with “MAPK1” for “PDGFRβ”, “25” for “8”, “Tris” for “MOPS”, “7.5, 0.02” for “7.0, 0.2”, “EGTA, 250 μM peptide,” for “EDTA, 0.1 mg/mL poly(Glu, Tyr) 4:1, 10 mM MnCl2,”, “P30 filtermat” for “Filtermat A”
as §3, §4

In another experiment the target is T5, EphA2 (Homo sapiens, UniProt P29317).
T5 construct: purchased Millipore (assay service)
T5 sequence (P29317 24-976): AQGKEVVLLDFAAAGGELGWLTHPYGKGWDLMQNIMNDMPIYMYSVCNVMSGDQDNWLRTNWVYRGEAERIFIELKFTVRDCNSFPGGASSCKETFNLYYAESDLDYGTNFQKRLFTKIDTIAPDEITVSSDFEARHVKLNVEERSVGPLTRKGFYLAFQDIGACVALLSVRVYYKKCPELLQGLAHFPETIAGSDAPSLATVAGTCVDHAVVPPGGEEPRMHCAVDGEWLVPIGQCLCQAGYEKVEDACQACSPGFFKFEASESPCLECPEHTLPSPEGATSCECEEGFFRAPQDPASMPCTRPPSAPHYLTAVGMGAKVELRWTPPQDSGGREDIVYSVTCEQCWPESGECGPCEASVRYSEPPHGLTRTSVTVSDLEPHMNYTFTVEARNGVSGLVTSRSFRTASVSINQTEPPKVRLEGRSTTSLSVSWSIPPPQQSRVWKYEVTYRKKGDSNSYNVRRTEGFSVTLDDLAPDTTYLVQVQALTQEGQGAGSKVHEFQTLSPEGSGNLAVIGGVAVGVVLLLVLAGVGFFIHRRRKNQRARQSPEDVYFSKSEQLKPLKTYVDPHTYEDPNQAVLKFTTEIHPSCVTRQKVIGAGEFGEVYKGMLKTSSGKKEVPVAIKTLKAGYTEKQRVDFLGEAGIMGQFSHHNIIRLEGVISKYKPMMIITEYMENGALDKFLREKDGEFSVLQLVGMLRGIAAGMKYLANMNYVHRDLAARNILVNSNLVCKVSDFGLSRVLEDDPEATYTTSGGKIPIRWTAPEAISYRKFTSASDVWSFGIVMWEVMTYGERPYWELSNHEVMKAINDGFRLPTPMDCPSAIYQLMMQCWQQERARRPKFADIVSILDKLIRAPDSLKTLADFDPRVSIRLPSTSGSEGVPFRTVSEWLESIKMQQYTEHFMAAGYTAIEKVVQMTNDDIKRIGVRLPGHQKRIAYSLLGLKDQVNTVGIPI
Put plainly: Millipore radiometric kinase activity assay, EphA2 (h). The method, then: as §1
as §2, with “EphA2” for “PDGFRβ”, “4:1,” for “4:1, 10 mM MnCl2,”
as §3, §4

A further experiment deals with T6, LIMK1 (Homo sapiens, UniProt P53667).
T6 construct: purchased Millipore (radiometric assay service)
T6 sequence (P53667 whole entry): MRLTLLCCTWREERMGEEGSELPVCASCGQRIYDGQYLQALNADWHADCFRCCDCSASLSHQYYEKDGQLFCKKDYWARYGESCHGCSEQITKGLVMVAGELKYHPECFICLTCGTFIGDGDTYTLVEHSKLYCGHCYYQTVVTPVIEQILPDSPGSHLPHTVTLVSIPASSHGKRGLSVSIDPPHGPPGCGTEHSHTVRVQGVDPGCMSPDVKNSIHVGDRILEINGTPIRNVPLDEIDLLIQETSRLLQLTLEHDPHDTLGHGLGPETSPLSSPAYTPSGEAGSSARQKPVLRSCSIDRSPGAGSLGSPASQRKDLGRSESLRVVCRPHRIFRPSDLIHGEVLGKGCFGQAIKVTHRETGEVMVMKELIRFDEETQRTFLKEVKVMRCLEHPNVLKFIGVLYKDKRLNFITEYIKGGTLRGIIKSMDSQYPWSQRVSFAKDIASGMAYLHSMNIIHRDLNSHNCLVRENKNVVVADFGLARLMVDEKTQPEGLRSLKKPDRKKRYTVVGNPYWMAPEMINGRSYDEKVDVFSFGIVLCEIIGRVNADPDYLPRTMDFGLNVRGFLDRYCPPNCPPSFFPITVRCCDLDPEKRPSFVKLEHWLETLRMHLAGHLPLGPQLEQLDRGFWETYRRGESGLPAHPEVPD
The experiment in a line: Millipore radiometric kinase activity assay, LIMK1 (h). As to the method:
as §1
as §2, with “LIMK1” for “PDGFRβ”, “0.6” for “0.1”, “cofilin,” for “poly(Glu, Tyr) 4:1, 10 mM MnCl2,”, “P30 filtermat” for “Filtermat A”
as §3, §4

In the next experiment the test system is AMPK. Put plainly: Millipore radiometric kinase activity assay, AMPK (r). As to conditions: rat AMPK. As to the method: as §1
as §2, with “AMPK (r)” for “μL, PDGFRβ (h)”, “32” for “8”, “HEPES” for “MOPS”, “7.4, 0.65” for “7.0, 0.2”, “DTT, 0.012% Brij-35, 200 μM AMP, 200 μM […] [SEQ ID NO: 49],” for “EDTA, 0.1 mg/mL poly(Glu, Tyr) 4:1, 10 mM MnCl2,”, “P30 filtermat” for “Filtermat A”
as §3, §4

T1 sequence (P09619 33-1106): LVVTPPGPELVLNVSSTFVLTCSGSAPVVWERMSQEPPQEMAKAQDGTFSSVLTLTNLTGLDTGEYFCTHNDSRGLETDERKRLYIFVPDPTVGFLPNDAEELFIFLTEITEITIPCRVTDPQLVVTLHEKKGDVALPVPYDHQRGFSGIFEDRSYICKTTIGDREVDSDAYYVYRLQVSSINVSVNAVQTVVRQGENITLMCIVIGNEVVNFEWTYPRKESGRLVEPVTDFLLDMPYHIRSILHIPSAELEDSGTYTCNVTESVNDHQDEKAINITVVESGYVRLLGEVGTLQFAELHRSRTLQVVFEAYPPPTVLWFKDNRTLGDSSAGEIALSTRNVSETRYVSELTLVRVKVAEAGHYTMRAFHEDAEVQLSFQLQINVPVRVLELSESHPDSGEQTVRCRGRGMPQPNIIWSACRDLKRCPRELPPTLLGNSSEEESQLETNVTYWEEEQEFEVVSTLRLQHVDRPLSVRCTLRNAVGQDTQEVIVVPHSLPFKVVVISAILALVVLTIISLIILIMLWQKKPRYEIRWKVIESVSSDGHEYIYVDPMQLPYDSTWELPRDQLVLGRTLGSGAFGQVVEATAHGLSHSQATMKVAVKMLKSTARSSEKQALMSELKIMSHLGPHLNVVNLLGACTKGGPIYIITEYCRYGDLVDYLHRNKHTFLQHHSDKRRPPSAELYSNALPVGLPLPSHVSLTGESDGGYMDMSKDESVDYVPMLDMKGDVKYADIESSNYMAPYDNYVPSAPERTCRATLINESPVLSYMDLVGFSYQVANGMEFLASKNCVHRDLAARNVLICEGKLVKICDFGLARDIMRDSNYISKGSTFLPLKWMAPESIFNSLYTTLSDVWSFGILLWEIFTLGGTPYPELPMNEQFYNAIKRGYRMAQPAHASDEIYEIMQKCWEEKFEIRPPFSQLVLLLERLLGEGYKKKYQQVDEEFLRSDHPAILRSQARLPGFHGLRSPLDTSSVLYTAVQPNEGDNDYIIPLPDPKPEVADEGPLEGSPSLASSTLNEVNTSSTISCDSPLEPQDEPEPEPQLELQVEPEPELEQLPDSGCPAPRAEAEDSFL
T4 sequence (P27361 whole entry): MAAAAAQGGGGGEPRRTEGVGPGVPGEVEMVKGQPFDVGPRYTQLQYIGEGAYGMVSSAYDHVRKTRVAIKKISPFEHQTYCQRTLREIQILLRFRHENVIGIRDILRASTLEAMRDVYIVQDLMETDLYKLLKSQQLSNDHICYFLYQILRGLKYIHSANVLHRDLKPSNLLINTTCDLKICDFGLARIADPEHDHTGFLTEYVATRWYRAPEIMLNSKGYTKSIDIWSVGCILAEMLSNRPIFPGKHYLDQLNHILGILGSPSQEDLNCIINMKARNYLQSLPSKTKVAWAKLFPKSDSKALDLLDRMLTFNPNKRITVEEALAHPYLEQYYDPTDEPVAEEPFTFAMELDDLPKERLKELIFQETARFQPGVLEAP

With KAFAKLAARLYRKALARQLGVAA, in the experiment with PDGFRβ (peptide 100 μM), the “PDGFRβ Kinase Activity (%) (+SD %)” value is reported as 66 (8) %. For the same sequence, in the experiment with Met (peptide 100 μM), the “Met Kinase Activity (%) (+SD %)” value is reported as 22 (3) %. Moreover, in the experiment with CK1δ (peptide 100 μM), the “CK1δ Kinase Activity (%) (+SD %)” value is 97 (2) %. The “MAPK1 Kinase Activity (%) (+SD %)” value in the experiment with MAPK1 (peptide 100 μM) was 108 (1) %. In the experiment with EphA2 (peptide 100 μM), the “EphA2 Kinase Activity (%) (+SD %)” value is 22 (7) %. Moreover, the “LIMK1 Kinase Activity (%) (+SD %)” value in the experiment with LIMK1 (peptide 100 μM) is reported as 93 (3) %. In the experiment with AMPK (peptide 100 μM), the “AMPK Kinase Activity (%) (+SD %)” value was 118 (7) %.

For WLRRIKAWLRRIKALNRQLGVAA, the “PDGFRβ Kinase Activity (%) (+SD %)” value with PDGFRβ (peptide 30 μM) is 42 (4) %; with PDGFRβ (peptide 100 μM), 92 (4) %. In addition, the “Met Kinase Activity (%) (+SD %)” value with Met (peptide 30 μM) is 30 (1) %; with Met (peptide 100 μM) it was 17 (3) %. In addition, the “CK1δ Kinase Activity (%) (+SD %)” value is reported as 52 (1) % in the experiment with CK1δ (peptide 30 μM) and 99 (3) % in the experiment with CK1δ (peptide 100 μM). The “MAPK1 Kinase Activity (%) (+SD %)” value is recorded as 121 (5) % in the experiment with MAPK1 (peptide 30 μM) and 104 (3) % in the experiment with MAPK1 (peptide 100 μM). Further, the “EphA2 Kinase Activity (%) (+SD %)” value with EphA2 (peptide 30 μM) is 38 (4) %; with EphA2 (peptide 100 μM), 32 (2) %. In addition, the “LIMK1 Kinase Activity (%) (+SD %)” value was 89 (3) % in the experiment with LIMK1 (peptide 30 μM) and 92 (2) % in the experiment with LIMK1 (peptide 100 μM). For the same sequence, the entries for the “AMPK Kinase Activity (%) (+SD %)” value in the experiment with AMPK (peptide 30 μM) and with AMPK (peptide 100 μM) were 36 (4) % and 101 (6) %, respectively.
